B1: RBD-1 aptamer (ssDNA)
DNA: CAGCACCGACCTTGTGCTTTGGGAGTGCTGGTCCAAGGGCGTTAATGGACA
B2: RBD-1/MM-T2 antisense duplex (mixed)
DNA 1: B1 DNA
DNA 2: GACGGTGCTG
B3: RBD-1/CM antisense duplex (mixed)
DNA 1: B1 DNA
DNA 2: GTCGGTGCTG
B4: RBD-1/MM-T9 antisense duplex (mixed)
DNA 1: B1 DNA
DNA 2: GTCGGTGCAG

Columns and labels:
[1] = biological target: T1, SARS-CoV-2 spike receptor binding domain (RBD) (SARS-CoV-2, UniProt P0DTC2 319-541); experiment: ELONA; conditions: protein: commercial; label: 5'-biotin
[2] = biological target: T1, SARS-CoV-2 spike receptor binding …; experiment: fluorescent strand displacement from beads; conditions: protein: commercial

Binder | Kd [1] [nM] | binding result [2]
B1 | 4.58 ± 1.15 | –
B2 | – | binds
B3 | – | binds
B4 | – | binds

Reference: article PMC12365907, “https://orcid.org/0000-0002-7156-8846 Tungsirisurp Sireethorn Conceptualization Methodology Formal analysis Investigation Data curation Writing – original draft Writing – review & editing”
